In patent US20140322204A1:

Assays:
[1] = molecular target: E1E2 of HCV genotype 3a isolate UKN3A13.6 (Hepatitis C virus genotype 3a); assay: cell-based or functional assay
[2] = molecular target: E1E2 of HCV genotype 5 isolate UKN5.15.11 (Hepatitis C virus genotype 5); assay: cell-based or functional assay
[3] = molecular target: 412-423 branched peptide (UniProt P27958); assay: antibody titration on the branched peptide (FIG. 10)
[4] = molecular target: H77 E1E2 mutant Q412A (Hepatitis C virus genotype 1a strain H77) (UniProt P27958); assay: GNA capture EIA of E1E2 from HEK 293T cells
[5] = molecular target: H77 E1E2 mutant L413A (Hepatitis C virus genotype 1a strain H77) (UniProt P27958); assay: GNA capture EIA of E1E2 from HEK 293T cells
[6] = molecular target: H77 E1E2 mutant N415A (Hepatitis C virus genotype 1a strain H77) (UniProt P27958); assay: GNA capture EIA of E1E2 from HEK 293T cells
[7] = molecular target: H77 E1E2 mutant W420A (Hepatitis C virus genotype 1a strain H77) (UniProt P27958); assay: GNA capture EIA of E1E2 from HEK 293T cells
[8] = molecular target: H77 E1E2 mutant G418A (Hepatitis C virus genotype 1a strain H77) (UniProt P27958); assay: GNA capture EIA of E1E2 from HEK 293T cells

## monoclonal antibody AP33
[1]
  IC50 of HCVpp neutralisation (ug/ml (printed p.g/ml)): 22
[2]
  IC50 of HCVpp neutralisation (ug/ml (printed p.g/ml)): 0.6
[3]
  fold lower concentration required to obtain 50% binding, against MAb 3/11: > 10 fold
[4]
  enhancement of binding compared to wild type: 50%
[5]
  reduction of binding compared to wild type: > 75%
[6]
  reduction of binding compared to wild type: > 75%
[7]
  reduction of binding compared to wild type: > 75%
[8]
  reduction of binding compared to wild type: > 75%
